Data published in the supplement of paper PMC10567573.

B1: OAS1 (parent)
chain: LQLGEGVEFDVLPAFDALGQLTGG
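Further: lentivirally expressed fusions sorted by FACS into six bins by GFP to DsRed ratio, PSI derived from sequencing read proportions per bin multiplied by bin number.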

Variants of: B1
Assay: protein stability index of a GFP-peptide fusion (GPS, HEK-293T) (PSI 1-6); higher = more stable
Settings: c terminus: a fixed tail appended
LQLGEGVEFDVLPAFDALNQLTGG [G19N] gave a protein stability index of 2.
With LQLGEGVEFDVLPAFDALTQLTGG [G19T] the protein stability index was 2.01.
LQLGEGVEFDVLPAFDALKQLTGG [G19K] gave a protein stability index of 2.3.
In the case of LQLGEGVEFDVLPAFDALDQLTGG [G19D], the protein stability index is reported as 2.91.
For LQLGEGVEFDVLPAFDALCQLTGG [G19C], the protein stability index was 2.11.
In the case of LQLGEGVEFDVLPAFDALYQLTGG [G19Y], the protein stability index is reported as 1.84.
Variant LQLGEGVEFDVLPAFDALSQLTGG [G19S] has a protein stability index of 1.54.
With LQLGEGVEFDVLPAFDALVQLTGG [G19V] the protein stability index was 1.45.
In the case of LQLGEGVEFDVLPAFDALGQTTGG [L21T], the protein stability index is reported as 1.89.
With LQLGEGVEFDVLPAFDALGQETGG [L21E] the protein stability index was 2.5.
With LQLGEGVEFDVLPAFDALGQYTGG [L21Y] the protein stability index was 1.51.
Work on LQLGEGVEFDVLPAFDALGQSTGG [L21S] yielded a protein stability index of 2.06.
For LQLGEGVEFDVLPAFDALGQITGG [L21I], the protein stability index was 2.91.
For LQLGEGVEFDVLPAFDALGQCTGG [L21C], the protein stability index was 3.05.
In the case of LQLGEGVEFDVLPAFDALGQVTGG [L21V], the protein stability index is reported as 2.22.
For LQLGEGVEFDVLPAFDALGQHTGG [L21H], the protein stability index was 1.68.
LQLGEGVEFDVLPAFDALGQLTRG [G23R] showed a protein stability index of 2.68.
For LQLGEGVEFDVLPAFDALGQLTSG [G23S], the protein stability index was 1.74.
LQLGEGVEFDVLPAFDALGQLTYG [G23Y] showed a protein stability index of 1.34.
For LQLGEGVEFDVLPAFDALGQLTDG [G23D], the protein stability index was 2.13.
LQLGEGVEFDVLPAFDALGQLTMG [G23M] gave a protein stability index of 1.13.
Work on LQLGEGVEFDVLPAFDALGQLTLG [G23L] yielded a protein stability index of 1.4.
LQLGEGVEFDVLPAFDALGQLTEG [G23E] gave a protein stability index of 2.26.
In the case of LQLGEGVEFDVLPAFDALGQLTKG [G23K], the protein stability index is reported as 2.13.
LQLGEGVEFDVLPAFDALGQLTTG [G23T] showed a protein stability index of 1.67.
LQLGEGVEFDVMPAFDALGQLTGG [L12M] showed a protein stability index of 3.1.
Variant LQLGEGVEFDVYPAFDALGQLTGG [L12Y] has a protein stability index of 1.72.
In the case of LQLGEGVEFDVQPAFDALGQLTGG [L12Q], the protein stability index is reported as 2.59.
Variant LQLGEGVEFDVVPAFDALGQLTGG [L12V] has a protein stability index of 2.24.
Work on LQLFEGVEFDVLPAFDALGQLTGG [G4F] yielded a protein stability index of 1.17.
LQLNEGVEFDVLPAFDALGQLTGG [G4N] gave a protein stability index of 2.16.
Work on LQLEEGVEFDVLPAFDALGQLTGG [G4E] yielded a protein stability index of 3.05.
LQLYEGVEFDVLPAFDALGQLTGG [G4Y] gave a protein stability index of 1.08.
For LQLHEGVEFDVLPAFDALGQLTGG [G4H], the protein stability index was 2.25.
LQLCEGVEFDVLPAFDALGQLTGG [G4C] gave a protein stability index of 1.38.
For LQLWEGVEFDVLPAFDALGQLTGG [G4W], the protein stability index was 1.65.
With LQLPEGVEFDVLPAFDALGQLTGG [G4P] the protein stability index was 2.36.
For LQLKEGVEFDVLPAFDALGQLTGG [G4K], the protein stability index was 2.8.
Variant LQLSEGVEFDVLPAFDALGQLTGG [G4S] has a protein stability index of 1.4.
In the case of LQLVEGVEFDVLPAFDALGQLTGG [G4V], the protein stability index is reported as 1.7.
For LQLGEGVEFDVLPSFDALGQLTGG [A14S], the protein stability index was 1.55.
In the case of LQLGEGVEFDVLPTFDALGQLTGG [A14T], the protein stability index is reported as 2.34.
LQLGEGVEFDVLPNFDALGQLTGG [A14N] showed a protein stability index of 1.86.
LQLGEGVEFDVLPVFDALGQLTGG [A14V] gave a protein stability index of 1.19.
LQLGEGVEFDVLPHFDALGQLTGG [A14H] gave a protein stability index of 1.58.
With LQLGEGVEFDVLPPFDALGQLTGG [A14P] the protein stability index was 2.02.
Variant LQLGEGVEFDVLPRFDALGQLTGG [A14R] has a protein stability index of 1.29.
LQLGEGVEFDVLPQFDALGQLTGG [A14Q] gave a protein stability index of 2.46.
Variant LQLGEGVEFDVLPAFCALGQLTGG [D16C] has a protein stability index of 1.34.
With LQLGEGVEFDVLPAFHALGQLTGG [D16H] the protein stability index was 2.26.
LQLGEGVEFDVLPAFAALGQLTGG [D16A] showed a protein stability index of 1.79.
LQLGEGVEFDVLPAFQALGQLTGG [D16Q] showed a protein stability index of 2.29.
LQLGEGVEFDVLPAFRALGQLTGG [D16R] gave a protein stability index of 1.31.
With LQLGEGVEFDVLPAFDALGQLCGG [T22C] the protein stability index was 2.22.
LQLGEGVEFDVLPAFDALGQLHGG [T22H] showed a protein stability index of 2.06.
LQLGEGVEFDVLPAFDALGQLGGG [T22G] gave a protein stability index of 2.05.
In the case of LQLGEGVEFDVLPAFDALGQLSGG [T22S], the protein stability index is reported as 1.73.
For LQLGEGVEFDVLPAFDALGQLVGG [T22V], the protein stability index was 1.86.
Work on LQLGEGVEFDVLPAFDALGQLDGG [T22D] yielded a protein stability index of 1.97.
LQLGEGVEFDVLPAFDALGQLFGG [T22F] showed a protein stability index of 2.69.
LQLGEGVEFDVLPAFDALGQLPGG [T22P] showed a protein stability index of 1.9.
Work on LQLGEGVEFDVLPAFDALGQLMGG [T22M] yielded a protein stability index of 1.07.
Work on LQLGEGVEFDVLPAFDALGQLEGG [T22E] yielded a protein stability index of 2.75.
Variant LQLGEYVEFDVLPAFDALGQLTGG [G6Y] has a protein stability index of 1.3.
LQLGEWVEFDVLPAFDALGQLTGG [G6W] showed a protein stability index of 1.74.
For LQLGECVEFDVLPAFDALGQLTGG [G6C], the protein stability index was 1.83.
For LQLGEDVEFDVLPAFDALGQLTGG [G6D], the protein stability index was 1.88.
Work on LQLGEQVEFDVLPAFDALGQLTGG [G6Q] yielded a protein stability index of 2.51.
In the case of LQLGEKVEFDVLPAFDALGQLTGG [G6K], the protein stability index is reported as 3.
LQLGEMVEFDVLPAFDALGQLTGG [G6M] gave a protein stability index of 2.01.
Work on LQLGETVEFDVLPAFDALGQLTGG [G6T] yielded a protein stability index of 1.55.
With LQLGEGVEQDVLPAFDALGQLTGG [F9Q] the protein stability index was 3.84.
LQLGEGVEIDVLPAFDALGQLTGG [F9I] showed a protein stability index of 1.65.
With LQLGEGVEDDVLPAFDALGQLTGG [F9D] the protein stability index was 3.88.
For LQLGEGVEEDVLPAFDALGQLTGG [F9E], the protein stability index was 4.37.
In the case of LQLGEGVECDVLPAFDALGQLTGG [F9C], the protein stability index is reported as 2.37.
LQLGEGVENDVLPAFDALGQLTGG [F9N] showed a protein stability index of 4.57.
For LQLGEGVEMDVLPAFDALGQLTGG [F9M], the protein stability index was 2.88.
With LQLGEGVERDVLPAFDALGQLTGG [F9R] the protein stability index was 3.67.
Work on LQLGEGVEFDVLPAFDVLGQLTGG [A17V] yielded a protein stability index of 2.86.
For LQLGEGVEFDVLPAFDGLGQLTGG [A17G], the protein stability index was 2.01.
Work on LQLGEGVEFDVLPAFDWLGQLTGG [A17W] yielded a protein stability index of 3.13.
For LQLGEGVEFDVLPAFDMLGQLTGG [A17M], the protein stability index was 2.14.
With LQLGEGVEFDVLPAFDRLGQLTGG [A17R] the protein stability index was 2.05.
LQLGEGVEFDVLPAFDFLGQLTGG [A17F] showed a protein stability index of 3.94.
In the case of LQLGEGVEFDVLPAFDSLGQLTGG [A17S], the protein stability index is reported as 1.84.
Work on LQLGEGVEFDVLPAFDCLGQLTGG [A17C] yielded a protein stability index of 2.01.
Variant LNLGEGVEFDVLPAFDALGQLTGG [Q2N] has a protein stability index of 2.41.
LELGEGVEFDVLPAFDALGQLTGG [Q2E] gave a protein stability index of 3.58.
For LCLGEGVEFDVLPAFDALGQLTGG [Q2C], the protein stability index was 1.04.
With LMLGEGVEFDVLPAFDALGQLTGG [Q2M] the protein stability index was 3.19.
LDLGEGVEFDVLPAFDALGQLTGG [Q2D] gave a protein stability index of 2.84.
Variant LALGEGVEFDVLPAFDALGQLTGG [Q2A] has a protein stability index of 3.5.
LILGEGVEFDVLPAFDALGQLTGG [Q2I] showed a protein stability index of 2.81.
